Data set [1] concerns HeLa Kyoto. Kind of data set: solubility in G1/S (NP-40 vs SDS abundance) (log2 ratio); higher = more soluble. The note with it: cell cycle stage: G1/S.
Data set [2] has as its system HeLa Kyoto. The data set can be described thus: melting temperature (median over replicates), in situ; higher = more thermally stable.
Data set [3] concerns HeLa Kyoto. The data set can be described thus: solubility change mitosis vs G1/S (difference of NP-40 vs SDS log2 ratios) (log2 ratio difference); higher = more soluble in mitosis.
In data set [4] the test system is HeLa Kyoto. The data set can be described thus: thermal stability score vs G1/S (z-score of summed log2 fold changes over temperatures); higher = more thermally stable than in G1/S.
[5] abbreviates: cell cycle stage: early G1 (4.5 h after nocodazole release).
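Wherever melting temperature (median over replicates), in situ is given: HeLa Kyoto cells synchronized by double thymidine or nocodazole block, proteins quantified by TMT10plex mass spectrometry, three independent biological replicates.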
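Wherever solubility change mitosis vs G1/S (difference of NP-40 vs SDS log2 ratios) is given: synchronized HeLa Kyoto cells (double thymidine block for G1/S, nocodazole release for mitosis), protein amounts in NP-40 versus SDS lysates quantified by mass spectrometry, three biological replicates.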
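Wherever solubility in G1/S (NP-40 vs SDS abundance) is given: HeLa Kyoto cells arrested at G1/S by double thymidine block, proteins quantified by TMT10plex mass spectrometry in mild NP-40 versus SDS extracts, three biological replicates.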
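Wherever thermal stability score vs G1/S (z-score of summed log2 fold changes over temperatures) is given: synchronized HeLa Kyoto cells, proteins quantified by TMT10plex mass spectrometry, three biological replicates, mitosis taken 0.5 h after nocodazole release, G1/S directly after double thymidine block.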

“MSNPFAHLAEPLDPVQPGKKFFNLNKLEDSRYGRLPFSIRVLLEAAIRNCDEFLVKKQDIENILHWNVTQHKNIEVPFKPARVILQDFTGVPAVVDFAAMRDAVKKLGGDPEKINPVCPADLVIDHSIQVDFNRRADSLQKNQDLEFERNRERFEFLKWGSQAFHNMRIIPPGSGIIHQVNLEYLARVVFDQDGYYYPDSLVGTDSHTTMIDGLGILGWGVGGIEAEAVMLGQPISMVLPQVIGYRLMGKPHPLVTSTDIVLTITKHLRQVGVVGKFVEFFGPGVAQLSIADRATIANMCPEYGATAAFFPVDEVSITYLVQTGRDEEKLKYIKKYLQAVGMFRDFNDPSQDPDFTQVVELDLKTVVPCCSGPKRPQDKVAVSDMKKDFESCLGAKQGFKGFQVAPEHHNDHKTFIYDNTEFTLAHGSVVIAAITSCTNTSNPSVMLGAGLLAKKAVDAGLNVMPYIKTSLSPGSGVVTYYLQESGVMPYLSQLGFDVVGYGCMTCIGNSGPLPEPVVEAITQGDLVAVGVLSGNRNFEGRVHPNTRANYLASPPLVIAYAIAGTIRIDFEKEPLGVNAKGQQVFLKDIWPTRDEIQAVERQYVIPGMFKEVYQKIETVNESWNALATPSDKLFFWNSKSTYIKSPPFFENLTLDLQPPKSIVDAYVLLNLGDSVTTDHISPAGNIARNSPAARYLTNRGLTPREFNSYGSRRGNDAVMARGTFANIRLLNRFLNKQAPQTIHLPSGEILDVFDAAERYQQAGLPLIVLAGKEYGAGSSRDWAAKGPFLLGIKAVLAESYERIHRSNLVGMGVIPLEYLPGENADALGLTGQERYTIIIPENLKPQMKVQVKLDTGKTFQAVMRFDTDVELTYFLNGGILNYMIRKMAK [ACO1]”: the “solubility in G1/S (log2)” value in data set [1] was -0.0477. The values for the melting temperature in data set [2] (cell cycle stage: G1/S) and in data set [2] (cell cycle stage: mitosis) were 54 °C and 53.1 °C, respectively. Moreover, the “solubility change mitosis (log2)” value in data set [3] was -0.178. The figures for the thermal stability score in data set [4] (setting [5]) and in data set [4] (cell cycle stage: mitosis) were -1.5 and -0.466, respectively.
Turning to “MSPARRCRGMRAAVAASVGLSEGPAGSRSGRLFRPPSPAPAAPGARLLRLPGSGAVQAASPERAGWTEALRAAVAELRAGAVVAVPTDTLYGLACAASCSAALRAVYRLKGRSEAKPLAVCLGRVADVYRYCRVRVPEGLLKDLLPGPVTLVMERSEELNKDLNPFTPLVGIRIPDHAFMQDLAQMFEGPLALTSANLSSQASSLNVEEFQDLWPQLSLVIDGGQIGDGQSPECRLGSTVVDLSVPGKFGIIRPGCALESTTAILQQKYGLLPSHASYL [YRDC]”, the “solubility in G1/S (log2)” value in data set [1] was 0.378. Also, the melting temperature in data set [2] (cell cycle stage: G1/S) amounted to 52.3 °C; in data set [2] (cell cycle stage: mitosis) it was 52.7 °C. The “solubility change mitosis (log2)” value in data set [3] is -0.0312. Also, the figures for the thermal stability score in data set [4] (setting [5]) and in data set [4] (cell cycle stage: mitosis) were 0.325 and 0.668, respectively.
As to “MSQAVQTNGTQPLSKTWELSLYELQRTPQEAITDGLEIVVSPRSLHSELMCPICLDMLKNTMTTKECLHRFCADCIITALRSGNKECPTCRKKLVSKRSLRPDPNFDALISKIYPSRDEYEAHQERVLARINKHNNQQALSHSIEEGLKIQAMNRLQRGKKQQIENGSGAEDNGDSSHCSNASTHSNQEAGPSNKRTKTSDDSGLELDNNNAAMAIDPVMDGASEIELVFRPHPTLMEKDDSAQTRYIKTSGNATVDHLSKYLAVRLALEELRSKGESNQMNLDTASEKQYTIYIATASGQFTVLNGSFSLELVSEKYWKVNKPMELYYAPTKEHK [RNF2]”, in data set [1], the “solubility in G1/S (log2)” value is -0.307. For the same sequence, the melting temperature in data set [2] (cell cycle stage: G1/S) is 49.2 °C; in data set [2] (cell cycle stage: mitosis) it was 51.7 °C. Also, in data set [3], the “solubility change mitosis (log2)” value came to 0.211. The values for the thermal stability score in data set [4] (setting [5]) and in data set [4] (cell cycle stage: mitosis) were 0.412 and 0.728, respectively.
On to “MSQPGIPASGGAPASLQAQNGAALASGSPYTNGPVQNALLSSQESVSQGYNFQLPGSYPHPIPAKTLNPVSGQSNYGGSQGSGQTLNRPPVASNPVTPSLHSGPAPRMPLPASQNPATTPMPSSSFLPEANLPPPLNWQYNYPSTASQTNHCPRASSQPTVSGNTSLTTNHQYVSSGYPSLQNSFIKSGPSVPPLVNPPLPTTFQPGAPHGPPPAGGPPPVRALTPLTSSYRDVPQPLFNSAVNQEGITSNTNNGSMVVHSSYDEIEGGGLLATPQLTNKNPKMSRSVGYSYPSLPPGYQNTTPPGATGVPPSSLNYPSGPQAFTQTPLGANHLTTSMSGLSLQPEGLRVVNLLQERNMLPSTPLKPPVPNLHEDIQKLNCNPELFRCTLTSIPQTQALLNKAKLPLGLLLHPFKDLVQLPVVTSSTIVRCRSCRTYINPFVSFLDQRRWKCNLCYRVNDVPEEFLYNPLTRVYGEPHRRPEVQNATIEFMAPSEYMLRPPQPPVYLFVFDVSHNAVETGYLNSVCQSLLDNLDLLPGNTRTKIGFITFDSTIHFYGLQESLSQPQMLIVSDIEDVFIPMPENLLVNLNESKELVQDLLKTLPQMFTKTLETQSALGPALQAAFKLMSPTGGRMSVFQTQLPTLGVGALKPREEPNHRSSAKDIHMTPSTDFYKKLALDCSGQQVAVDLFLLSGQYSDLASLGCISRYSAGSVYYYPSYHHQHNPVQVQKLQKELQRYLTRKIGFEAVMRIRCTKGLSIHTFHGNFFVRSTDLLSLPNVNPDAGYAVQMSVEESLTDTQLVSFQSALLYTSSKGERRIRVHTLCLPVVSTLNDVFLGADVQAISGLLANMAVDRSMTASLSDARDALVNAVIDSLSAYRSSVLSNQQPGLMVPFSLRLFPLFVLALLKQKSFQTGTNARLDERIFAMCQVKNQPLVYLMLTTHPSLYRVDNLSDEGALNISDRTIPQPPILQLSVEKLSRDGAFLMDAGSVLMLWVGKNCTQNFLSQVLGVQNYASIPQPMTDLPELDTPESARIIAFISWLREQRPFFPILYVIRDESPMKANFLQNMIEDRTESALSYYEFLLHIQQQVNK [SEC24A]”, for which, in data set [1], the “solubility in G1/S (log2)” value came out at 0.00033. In addition, the melting temperature in data set [2] (cell cycle stage: G1/S) and in data set [2] (cell cycle stage: mitosis) was 49.5 °C in each case. In addition, the “solubility change mitosis (log2)” value in data set [3] is -0.0997. Further, the thermal stability score in data set [4] (setting [5]) stood at 0.052; in data set [4] (cell cycle stage: mitosis), 0.892.
Turning to “MSQPPPPPPPLPPPPPPPEAPQTPSSLASAAASGGLLKRRDRRILSGSCPDPKCQARLFFPASGSVSIECTECGQRHEQQQLLGVEEVTDPDVVLHNLLRNALLGVTGAPKKNTELVKVMGLSNYHCKLLSPILARYGMDKQTGRAKLLRDMNQGELFDCALLGDRAFLIEPEHVNTVGYGKDRSGSLLYLHDTLEDIKRANKSQECLIPVHVDGDGHCLVHAVSRALVGRELFWHALRENLKQHFQQHLARYQALFHDFIDAAEWEDIINECDPLFVPPEGVPLGLRNIHIFGLANVLHRPIILLDSLSGMRSSGDYSATFLPGLIPAEKCTGKDGHLNKPICIAWSSSGRNHYIPLVGIKGAALPKLPMNLLPKAWGVPQDLIKKYIKLEEDGGCVIGGDRSLQDKYLLRLVAAMEEVFMDKHGIHPSLVADVHQYFYRRTGVIGVQPEEVTAAAKKAVMDNRLHKCLLCGALSELHVPPEWLAPGGKLYNLAKSTHGQLRTDKNYSFPLNNLVCSYDSVKDVLVPDYGMSNLTACNWCHGTSVRKVRGDGSIVYLDGDRTNSRSTGGKCGCGFKHFWDGKEYDNLPEAFPITLEWGGRVVRETVYWFQYESDSSLNSNVYDVAMKLVTKHFPGEFGSEILVQKVVHTILHQTAKKNPDDYTPVNIDGAHAQRVGDVQGQESESQLPTKIILTGQKTKTLHKEELNMSKTERTIQQNITEQASVMQKRKTEKLKQEQKGQPRTVSPSTIRDGPSSAPATPTKAPYSPTTSKEKKIRITTNDGRQSMVTLKSSTTFFELQESIAREFNIPPYLQCIRYGFPPKELMPPQAGMEKEPVPLQHGDRITIEILKSKAEGGQSAAAHSAHTVKQEDIAVTGKLSSKELQEQAEKEMYSLCLLATLMGEDVWSYAKGLPHMFQQGGVFYSIMKKTMGMADGKHCTFPHLPGKTFVYNASEDRLELCVDAAGHFPIGPDVEDLVKEAVSQVRAEATTRSRESSPSHGLLKLGSGGVVKKKSEQLHNVTAFQGKGHSLGTASGNPHLDPRARETSVVRKHNTGTDFSNSSTKTEPSVFTASSSNSELIRIAPGVVTMRDGRQLDPDLVEAQRKKLQEMVSSIQASMDRHLRDQSTEQSPSDLPQRKTEVVSSSAKSGSLQTGLPESFPLTGGTENLNTETTDGCVADALGAAFATRSKAQRGNSVEELEEMDSQDAEMTNTTEPMDHS [VCPIP1]”, in data set [1], the “solubility in G1/S (log2)” value is -0.111. Also, the melting temperature in data set [2] (cell cycle stage: G1/S) was 48.3 °C; in data set [2] (cell cycle stage: mitosis), 48.8 °C. Besides, the “solubility change mitosis (log2)” value in data set [3] was -0.0432. Besides, the thermal stability score was 1.21 in data set [4] (setting [5]) and 1.02 in data set [4] (cell cycle stage: mitosis).

For the origin of these results see the supplement of paper PMC5998384.
